Laboratory results taken from patent US20230049152A1 (Genentech, published 2023).
Positions count from the first letter of the chain named. Values belong to the binder of their own block, whether it stands above or below them.

What was measured:
[1] = target: T1, human CCR8 (human, UniProt P51685 1-355); assay: flow cytometry, 2 ug/mL mAb, Treg cells of human colorectal dissociated tumor cells
T1 construct: the assay field says which; also called hCCR8; huCCR8
Procedure: The mAbs were evaluated for binding to regulatory T cells (Treg cells or Tregs) by Fluorescence-Activated Cell Sorting (FACS) flow cytometry. Human colorectal dissociated tumor cells (DTC) (Discovery Life Sciences) were thawed according to vendor's protocol. Cells were surface stained with eFluor 780-conjugated Fixable Viability Dye (ThermoFisher Scientific) and 2 ug/mL mAb specific for CCR8, OX40 (positive control), Herceptin (negative control), or anti-hIgG (negative control) for 20 min at 4° C. followed by secondary detection with AF647-conjugated AffiniPure F(ab′)2 Fragment Goat anti-Human IgG, Fcg fragment-specific (Jackson ImmunoResearch) for 10 min at 4° C. Cells were then intracellularly stained using the eBioscience Foxp3/Transcription Factor Staining Buffer Set (ThermoFisher Scientific) according to the manufacturer's protocol. […] Shown in FIG. 1 are mean fluorescent intensity (MFI) values for CD8 T cells (defined as CD45+CD14−CD3+CD8+CD4−) (circles, ◯), conventional CD4 T cells (defined as CD45+CD14−CD3+CD8−CD4+FOXP3−) (squares, □), and Treg cells (defined as CD45+CD14−CD3+CD8−CD4+FOXP3+) (triangles, ▴). Three of the five CCR8 mAb clones specifically stained Treg cells and not conventional CD4 or CD8 T cells and were ranked according to CCR8 MFI, greater than 500 MFI: hu.Ab4.H1L1>hu.Ab5.H1L1>hu.Ab3.H1L1. Upon confirmation that these three CCR8 mAb clones, namely, hu.Ab3.H1L1, hu.Ab4.H1L1, and hu.Ab5.H1L1, also retained human-cyno cross-reactivity (differences less than 5-fold on human and cyno CCR8 CHO cells), these antibodies carried forward for further exploration.

[2] = target: T2, human ACKR2 (human, UniProt O00590 1-384); assay: flow cytometry, HEK293 with N-term FLAG-tagged human ACKR2
T2 construct: whole, on cells; transiently expressed on HEK293 cells
T2 sequence (looked up): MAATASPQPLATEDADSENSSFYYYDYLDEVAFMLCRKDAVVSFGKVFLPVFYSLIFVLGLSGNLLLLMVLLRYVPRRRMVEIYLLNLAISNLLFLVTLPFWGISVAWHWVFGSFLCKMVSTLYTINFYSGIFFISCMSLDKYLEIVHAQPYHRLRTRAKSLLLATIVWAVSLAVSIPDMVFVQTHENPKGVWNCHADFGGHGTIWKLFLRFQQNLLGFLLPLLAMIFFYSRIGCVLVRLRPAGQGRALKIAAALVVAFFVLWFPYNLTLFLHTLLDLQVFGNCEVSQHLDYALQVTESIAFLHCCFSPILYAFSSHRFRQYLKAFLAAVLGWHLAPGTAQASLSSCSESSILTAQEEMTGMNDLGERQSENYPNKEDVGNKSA
Description: FIGS. 4A-4F depicts the binding data of hu.Ab3.H1L1 (FIG. 4A), hu.Ab4.H1L1 (FIG. 4B), and hu.Ab5.H1L1 (FIG. 4C), as well as the commercial anti-CCR8 mAbs murine anti-human CCR8 mAb 433H (BD Biosciences) (FIG. 4D), and murine anti-human CCR8 mAb L263G8 (Biolegend) (FIG. 4E), and the humanized anti-human Yoshida anti-CCR8 mAb (FIG. 4F), to HEK293 cells that were transiently transfected with N-term FLAG-tagged plasmids encoding for human GPCRs (CCR2, CCR3, CCR4, CCR5, CCR8, CXCR4, ACKR2, and ACKR4), hCCR8 constructs, or with a mock construct using transIT X2 (reagent:DNA=3:1).
To confirm the selectivity to CCR8, the binding of hu.Ab3.H1L1, hu.Ab4.H1L1, and hu.Ab5.H1L1, as well as the Yoshida humanized anti-human CCR8, murine anti-human CCR8 mAb L263G8 (Biolegend, Commercial Ab) and murine anti-human CCR8 mAb 433H (BD Biosciences, Commercial Ab), were characterized by flow cytometry on HEK293 cells that were transiently transfected with plasmids encoding for FLAG-tagged other related human GPCRs (CCR2-5, CXCR4, ACKR2, and ACKR4). Cell surface expression of each GPCR was confirmed by staining with an anti-FLAG antibody control. […]

[3] = target: T3, human CCR3 (human, UniProt P51677 1-355); assay: flow cytometry, HEK293 with N-term FLAG-tagged human CCR3, procedure of FIG. 4
T3 construct: whole, on cells; transiently expressed on HEK293 cells
T3 sequence (looked up): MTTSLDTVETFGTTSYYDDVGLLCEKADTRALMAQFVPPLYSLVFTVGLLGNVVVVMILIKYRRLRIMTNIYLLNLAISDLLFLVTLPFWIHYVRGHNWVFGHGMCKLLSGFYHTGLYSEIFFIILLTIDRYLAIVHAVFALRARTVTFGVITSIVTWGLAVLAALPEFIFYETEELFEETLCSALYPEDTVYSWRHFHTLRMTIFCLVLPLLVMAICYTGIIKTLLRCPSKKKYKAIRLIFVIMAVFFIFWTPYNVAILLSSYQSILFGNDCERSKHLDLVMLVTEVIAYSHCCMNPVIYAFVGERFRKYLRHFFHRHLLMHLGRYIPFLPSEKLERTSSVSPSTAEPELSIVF
Description: To confirm the selectivity to CCR8, the binding of hu.Ab3.H1L1, hu.Ab4.H1L1, and hu.Ab5.H1L1, as well as the Yoshida humanized anti-human CCR8, murine anti-human CCR8 mAb L263G8 (Biolegend, Commercial Ab) and murine anti-human CCR8 mAb 433H (BD Biosciences, Commercial Ab), were characterized by flow cytometry on HEK293 cells that were transiently transfected with plasmids encoding for FLAG-tagged other related human GPCRs (CCR2-5, CXCR4, ACKR2, and ACKR4). Cell surface expression of each GPCR was confirmed by staining with an anti-FLAG antibody control. In particular, HEK293 cells were transfected with N-term FLAG-tagged human CCR2, CCR3, CCR4, CCR5, CXCR4, ACKR2, ACKR4, hCCR8 constructs, or with a Mock construct using transIT X2 (reagent:DNA=3:1) for 24 hours, and surface stained with various anti-hCCR8 monoclonal antibodies at 5 ug/ml, or rabbit anti-Flag pAb (Sigma) followed by AF647-anti-hIgG or AF647-anti-RbIgG respectively. Antibodies hu.Ab4.H1L1, and hu.Ab5.H1L1, only stained the hCCR8-containing cells, confirming their specificity to hCCR8. […] Thus, the CCR8 selective hu.Ab4.H1L1 and hu.Ab5.H1L1 antibodies with the best ADCC activities were carried forward.
To reconfirm that the Ab4 and Ab5 variants remained selective to CCR8 compared to the corresponding HIL1 variants, binding was analyzed by flow cytometry following the procedure as described for FIG. 4A and FIG. 4B. […]

MFI [1]: > 500 MFI
binding result [2]: no binding (tested: 5 ug/ml)
B1: hu.Ab5.H1L1 (antibody, human IgG1, kappa)
heavy: not shown
light: DIQVTQSPSSLSASVGDRVTITCQASENIANALAWYQQKPGKPPKFLIYGASNLASGVPSRFSGSGSGTDFTFTISSLQPEDIATYYCQQAYYGNSFVEGTFGGGTKVEIKRTVAAPSVFIFPPSDEQLKSGTASVVCLLNNFYPREAKVQWKVDNALQSGNSQESVTEQDSKDSTYSLSSTLTLSKADYEKHKVYACEVTHQGLSSPVTKSFNRGEC

binding result [3]: no binding (tested: 5 ug/ml)
B2: hu.Ab5.H13L1 (antibody, human IgG1, kappa)
heavy: not shown
light: B1 light
notes: fucosylated human IgG1; also called Ab5 variant

MFI [1]: > 500 MFI
binding result [2]: no binding (tested: 5 ug/ml)
B3: hu.Ab4.H1L1 (antibody, human IgG1, kappa)
heavy: not shown
light: DYQMTQSPSSLSASVGDRVTITCQASQSISSYLSWYQQKPGKRPKLLIYKASTLASGVPSRFSGSGSGTDFTLTISSLQPEDFATYYCQQGYTSSNIDNIFGGGTKVEIKRTVAAPSVFIFPPSDEQLKSGTASVVCLLNNFYPREAKVQWKVDNALQSGNSQESVTEQDSKDSTYSLSSTLTLSKADYEKHKVYACEVTHQGLSSPVTKSFNRGEC
notes: also called hu.Ab4.H1Ll

binding result [3]: no binding (tested: 5 ug/ml)
B4: hu.Ab4.H12L3 (antibody, human IgG1, kappa)
heavy: not shown
light: B3 light with R43A
notes: fucosylated human IgG1; also called huCCR8-Ab4.H12L3.hIgG1; Ab4 variant
